Experimental data from paper PMC3479090.

Experiments:
[1] = target: human CD1d construct with C-terminal 3C protease site and 6X-Histidine tag, loaded with α-galactosylceramide (form used for SPR), P15813;P61769; assay: SPR; settings: read off a plot; for koff: parent: est. 0.34; for kon: parent: est. 1.3e4
[2] = target: Vα24+ NKT TCR clone J24L.17 (iNKT TCR, Vα24-Jα18/Vβ11) (human); assay: SPR; same curves as the kinetic analysis plus 9 µM and 27 µM CD1d–αGalCer; TCR on the chip; equilibrium analysis
[3] = target: Vα24+ NKT TCR clone J24L.17 (iNKT TCR, Vα24-Jα18/Vβ11) (human); assay: SPR; BIAcore 3000; 300 RU of TCR captured on a Ni-NTA sensor chip, surface blocked with recombinant IgFc; CD1d–αGalCer injected (0, 0.037, 0.111, 0.333, 1, 3 µM for kinetics; series up to 27 µM) at 30 µl/min in 10 mM Hepes pH 7.4, 150 mM NaCl, 0.005% Tween-20; kinetic analysis, Langmuir 1:1 model

| koff [1] [s⁻¹] | kon [1] [M⁻¹ s⁻¹] | Kd [1] [nM] | Kd [2] [nM] | Kd [3] [nM] | koff [3] [s⁻¹] | kon [3] [M⁻¹ s⁻¹] | Substance |
| --- | --- | --- | --- | --- | --- | --- | --- |
| 0.89 | 3700 | 24000 | – | – | – | – | Vα24− TCR J24.N22 (Vα3.1-Jα18/Vβ11), soluble heterodimer with zippers and His tags N29A |
| – | 12000 | 3400 | – | – | – | – | Vα24− TCR J24.N22 (Vα3.1-Jα18/Vβ11), soluble heterodimer with zippers and His tags N51A |
| 0.51 | 12000 | 4200 | – | – | – | – | Vα24− TCR J24.N22 (Vα3.1-Jα18/Vβ11), soluble heterodimer with zippers and His tags S27A |
| 0.38 | 23000 | 1700 | – | – | – | – | Vα24− TCR J24.N22 (Vα3.1-Jα18/Vβ11), soluble heterodimer with zippers and His tags S50A |
| 0.52 | 30000 | 1700 | – | – | – | – | Vα24− TCR J24.N22 (Vα3.1-Jα18/Vβ11), soluble heterodimer with zippers and His tags S97A |
| – | – | – | 1900 | 2100 | 0.414 | 194000 | human CD1d construct with C-terminal 3C protease site and 6X-Histidine tag, loaded with α-galactosylceramide (form used for SPR) (from UniProt P15813 20-335; P61769 21-119) (complex) |
